The source of these data is the supplement of paper PMC9170038.

This series concerns MS2 coat protein. The series is described as follows: apparent KD of MS2 coat protein; designed switch direction (-1 OFF switch, 1 ON switch): -1; higher = weaker reporter binding. Summed up:
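Designed RNA switches sharing common flanks were transcribed on Illumina chips by stalled E. coli RNA polymerase. They were titrated with SNAP-549-labelled MS2 coat protein, from 0.7 or 1.5 nM doubling to 3 µM, in Tris-HCl pH 7.5 buffer with KCl, MgCl2, BSA, DTT, tRNA and Tween-20. Titrations ran without input, with 200 uM small-molecule ligand, or with an oligonucleotide input. The apparent KD of each design is the median over its clusters, after curve-fitting of normalised cluster fluorescence.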

The mark [1] stands for this setting: input ligand: microRNA oligo, concentration not stated.
[2] abbreviates: Eterna round: R95, input ligand: FMN 200 uM.
Where [3] appears, read: Eterna round: R95, input ligand: microRNA oligo, concentration not stated.
Where [4] appears, read: Eterna round: R95, input ligand: none.

Turning to “ACUUACUGAGGAUAUACAUAGAUUUACAUGAGGAUCACCCAUGUUCCUCUAAGUAUAUAUGUAGAAGGCAGAAGAG [Mat - Exclusion 5 - JL Mod - D40] (Eterna round: R97, puzzle: Exclusion 5)”, the “apparent KD of MS2 coat protein” value (input ligand: FMN 200 uM) turned out to be 172 nM and the “apparent KD of MS2 coat protein” value (input ligand: none) came to 145 nM.

For the sequence “ACUUUUUGAGGAUAUACAUUGAUUAACAUGAGGAUCACCCAUGUACAAACAUGUAUUUGUGUAGAAGGCAGAAGAA [JR_Ex5_Sub068] (Eterna round: R97, puzzle: Exclusion 5)”, the “apparent KD of MS2 coat protein” value by setting is: (input ligand: FMN 200 uM) 14.9 nM; (input ligand: none) 13.2 nM.

Consider “AGAAACUCAAGAGGAUAUCACAUGAGGAUCACCCAUGUAUAGCGCGCUAUGCUAGUCCUCGUAUUUGAGAAGGUUUGAAAUAAG [Mat - Exclusion NG 2 - Mod of JL - D79] (Eterna round: R96, puzzle: Exclusion NG 2)”, for which the “apparent KD of MS2 coat protein” value (input ligand: FMN 200 uM) came out at 29.8 nM, the “apparent KD of MS2 coat protein” value under setting [1] amounted to 12.5 nM and the “apparent KD of MS2 coat protein” value (input ligand: none) was determined as 18.3 nM.

As to “AGAAAUGCCCAUGGCCGCAAGCCUUUUGCUUGUCUUACCACAUGAGGAUCACCCAUGUGACAUGGGCUCCUUAUAAU [Verileve] (puzzle: Sensor v3, turn-off variant 2)”, the “apparent KD of MS2 coat protein” value amounted to 14 nM under setting [2], 9.2 nM under setting [3] and 12.5 nM under setting [4].

Consider “AGAAGUAGAAACCGAUCCUACAUGAGGAUCACCCAUGUAGCAAGACGUGCACGCGAAGCUCGUCAGACUACCAGAAA [salish99_TOv1_r3_005] (puzzle: Sensor v3, turn-off variant 1)”, for which the “apparent KD of MS2 coat protein” value under setting [2] is 159 nM, the “apparent KD of MS2 coat protein” value under setting [3] is 223 nM and the “apparent KD of MS2 coat protein” value under setting [4] is 337 nM.

With “AGAAGUAGAAACCGAUCCUACAUGAGGAUCACCCAUGUAGCAAGACGUGCACGCGAAGCUCGUCAGACUACCAGAAG [salish99_TOv1_r3_001] (puzzle: Sensor v3, turn-off variant 1)”, the “apparent KD of MS2 coat protein” value by setting is: under setting [2], 379 nM; under setting [3], 821 nM; under setting [4], 685 nM.

As to “AGAAGUAGAAACCGAUCCUACAUGAGGAUCACCCAUGUAGCAAGACGUGCACGCGAAGCUCGUCAGACUACCAGAAG [solution 24] (Eterna round: R96, puzzle: Sensor v2, turn-off variant)”, the “apparent KD of MS2 coat protein” value came to 462 nM (input ligand: FMN 200 uM), 288 nM under setting [1] and 345 nM (input ligand: none).

For “AGAAGUAGUAACCGAUCCUACAUGAGGAUCACCCAUGUAGCCAGACGUGCACGCGAAGCUCGUCAGACUACCAGAUG [salish99_TOv1_r3_026] (puzzle: Sensor v3, turn-off variant 1)”, the “apparent KD of MS2 coat protein” value by setting is: under setting [2], 618 nM; under setting [3], 447 nM; under setting [4], 398 nM.

As for “AGAAGUAGUAGCCGAUCCUACAUGAGGAUCACCCAUGUAGCUAGACGUGCACGCGAUGCUCGUCAGACUACCAGAUG [salish99_TOv1_r3_031] (puzzle: Sensor v3, turn-off variant 1)”, the “apparent KD of MS2 coat protein” value reads like this: under setting [2], 131 nM; under setting [3], 120 nM; under setting [4], 155 nM.

Consider “AGACAGUCAGGAUAUACAUGAGGAUCACCCAUGUUGAGAUGAGAAAGGGCAGGAAGAGGUAGAAGGGACAAGAA [JR_Exclu3_Sub035] (puzzle: Exclusion 3)”, for which the “apparent KD of MS2 coat protein” value under setting [2] stood at 28.3 nM, the “apparent KD of MS2 coat protein” value under setting [3] amounted to 19.2 nM and the “apparent KD of MS2 coat protein” value under setting [4] worked out at 24.8 nM.

In the case of “AGACGGAGAAAAGGAUAUGAGACACUAGACGUCUCAGAAGGUUUAGCCAGUAGCUCCAACAUGAGGAUCACCCAUGUGGUCGUA [Eternabot solution 41] (Eterna round: R96, puzzle: Exclusion NG 1)”, the “apparent KD of MS2 coat protein” value runs as follows: (input ligand: FMN 200 uM) 50 nM; under setting [1], 108 nM; (input ligand: none) 184 nM.

“AGAGCACAUGAGGAUCACCCAUGUCAGGAUAUGCAAGAAAGAAAGAAAGAAAGAAAGAGCAGAAGGGACAAAUA [?solved?] (puzzle: Exclusion 1)”: the “apparent KD of MS2 coat protein” value under setting [2] was determined as 34.9 nM, the “apparent KD of MS2 coat protein” value under setting [3] came to 34.2 nM and the “apparent KD of MS2 coat protein” value under setting [4] stood at 43.2 nM.

Turning to “AGAGCCGUUGUAGGAUAUGCCCUCGGGUGAUGCCGGUCGCCACAUGAGGAUCACCCAUGUAGCGGGCAGAAGGGCAAACUCAGU [Eternabot solution 43] (Eterna round: R96, puzzle: Exclusion NG 2)”, the “apparent KD of MS2 coat protein” value runs as follows: (input ligand: FMN 200 uM) 26.6 nM; under setting [1], 13.4 nM; (input ligand: none) 18.5 nM.

Turning to “AGAGUAAUGCGAGGAUAUACAUGAGGAUCACCCAUGUGGUGGUGUGAGGCAAAGCCUCACACCAUGUAGAAGGCGCAUUACUCA [Mat - Exclusion NG 2 - Mod of JL - D21] (Eterna round: R96, puzzle: Exclusion NG 2)”, the “apparent KD of MS2 coat protein” value amounted to 155 nM (input ligand: FMN 200 uM), 35.2 nM under setting [1] and 39.3 nM (input ligand: none).

Regarding “AGAGUGCUGCGAGGAUAUACAUGAGGAUCACCCAUGUUUACCUGUGAGGCAAAGCCUCACAGGUAGUAGAAGGCGCAGUACUCA [Mat - Exclusion NG 2 - Mod of JL - D43] (Eterna round: R96, puzzle: Exclusion NG 2)”, the “apparent KD of MS2 coat protein” value by setting is: (input ligand: FMN 200 uM) 14.6 nM; under setting [1], 14.3 nM; (input ligand: none) 12.3 nM.

As to “AGAUCACAUGAGGAUCACCCAUGUCAGGAUAUGAUACUAUGUACUUCGGUACAUAGUAUCAGAAGGGAUAUAAA [Ex1-3: 68] (puzzle: Exclusion 1)”, the “apparent KD of MS2 coat protein” value under setting [3] came to 75.1 nM.

As for “AGAUCCUGAGUCAGGAUAUAGAGGCGGUAGCCUGGCUAGAAGGGACAUGAGGAUCACCCAUGUGGGUUCUUGCC [Gecela] (puzzle: Brourd's mod of Exclusion 4)”, the “apparent KD of MS2 coat protein” value under setting [3] was determined as 12.7 nM.

As to “AGAUCGUCAGGAUAUACAUGAGGAUCACCCAUGUACUGUCUAAAUUUGACUGUAAGAUGUAGAAGGGACGAUCG [Exclusion 3 (MOD9 of #1 Marzena11)] (Eterna round: R97, puzzle: Exclusion 3)”, the “apparent KD of MS2 coat protein” value (input ligand: FMN 200 uM) stood at 67.3 nM and the “apparent KD of MS2 coat protein” value (input ligand: none) came out at 25.8 nM.

As to “AGAUCUAUCACGAAAGUGAUAGAUCAAAUUAGUUUUUAAACAUGAGGAUCACCCAUGUCCUAGUGGGCUAGUCUUAU [Mat - Sensor v2 - var 2 - Mod - D135] (Eterna round: R96, puzzle: Sensor v2, turn-off variant 2)”, the “apparent KD of MS2 coat protein” value (input ligand: FMN 200 uM) worked out at 236 nM, the “apparent KD of MS2 coat protein” value under setting [1] amounted to 167 nM and the “apparent KD of MS2 coat protein” value (input ligand: none) amounted to 239 nM.

As for “AGAUGGCGAGGAUAUACAUGAGGAUCACCCAUGUGAAGAGAUAAAGUGAGGAAGAAAAGUAGAAGGCGCUGUCA [Mat - Exclusion 3 - Mod of Salish D24] (puzzle: Exclusion 3)”, the “apparent KD of MS2 coat protein” value under setting [2] amounted to 199 nM, the “apparent KD of MS2 coat protein” value under setting [3] came to 51.4 nM and the “apparent KD of MS2 coat protein” value under setting [4] worked out at 40.9 nM.

For the sequence “AGAUGUAGAUACCGAUCCUACAUGAGGAUCACCCAUGUAGCUAGACGUGCACGCGUAGCUCGUCAGACUACCAGAAG [salish99_TOv1_r3_085] (Eterna round: R96, puzzle: Sensor v3, turn-off variant 1)”, the “apparent KD of MS2 coat protein” value amounted to 461 nM (input ligand: FMN 200 uM), 253 nM under setting [1] and 449 nM (input ligand: none).

Consider “AGAUGUAGAUACCGAUCCUACAUGAGGAUCACCCAUGUAGCUAGACGUGCACGCGUAGCUCGUCAGACUACCAGAAG [salish99_TOv1_r3_085] (puzzle: Sensor v3, turn-off variant 1)”, for which the “apparent KD of MS2 coat protein” value worked out at 292 nM under setting [2], 147 nM under setting [3] and 223 nM under setting [4].

“AGAUGUAGAUACCGAUCCUACAUGAGGAUCACCCAUGUAGCUAGACGUGCGGGCGGCGCUCGUCAGACUACCAGUAG [salish99_TOv1_r3_094] (puzzle: Sensor v3, turn-off variant 1)”: the “apparent KD of MS2 coat protein” value is 271 nM under setting [2], 214 nM under setting [3] and 371 nM under setting [4].

In the case of “AGAUUAUGAGGAUAUCGAGUUUAGUACAUGAGGAUCACCCAUGUUAUCCAGGUCUCGUUUCGAGAAGGCAUGAUUC [LRO-Ex5-09] (puzzle: Exclusion 5)”, under setting [3], the “apparent KD of MS2 coat protein” value came out at 35.3 nM.

“AGCAAGCAAUAGGAUAUGCCUGCAAGCUUGCAUGCAGAAGGAUUGACUUGAGGAUCACCCAAGUGGGCUCCUAA [Erbexe] (Eterna round: R97, puzzle: Exclusion 6)”: the “apparent KD of MS2 coat protein” value runs as follows: (input ligand: FMN 200 uM) 319 nM; (input ligand: none) 49.5 nM.

On to “AGCAGACGAGGAUAUAAAUUUGAUAACAUGAGGAUCACCCAUGUGAUCGAUAGAUCAAAUUUAGAAGGUGUCUGCU [E5/7-B1] (Eterna round: R97, puzzle: Exclusion 5)”, for which the “apparent KD of MS2 coat protein” value was 512 nM (input ligand: FMN 200 uM) and 490 nM (input ligand: none).

In the case of “AGCAGACGAGGAUAUAGAUUUAGAUACAUGAGGAUCACCCAUGUAUAUAUGUAUUUAGAUUUAGAAGGCGUCUGCU [E5/15-A1] (Eterna round: R97, puzzle: Exclusion 5)”, the “apparent KD of MS2 coat protein” value (input ligand: FMN 200 uM) was 222 nM and the “apparent KD of MS2 coat protein” value (input ligand: none) was 219 nM.

On to “AGCAUGUGAGGAUAUGCGGACUCCGGUAAAGCUGGAGUCCAGUAGAAGGCACAUGAGGAUCACCCAUGUGAGAU [Uszadi] (Eterna round: R96, puzzle: Exclusion 4)”, for which the “apparent KD of MS2 coat protein” value runs as follows: (input ligand: FMN 200 uM) 317 nM; under setting [1], 53.3 nM; (input ligand: none) 63.2 nM.

Regarding “AGCCAAGCAGGAUAUAUCCGGGAUAACAUGAGGAUCACCCAUGUGACCGCUUGAUAUCCUAUAGAAGGGCUUGGGA [Mod of ViennaUCT 24 - Jieux - Exclusion 5] (Eterna round: R97, puzzle: Exclusion 5)”, the “apparent KD of MS2 coat protein” value amounted to 54.8 nM (input ligand: FMN 200 uM) and 24.9 nM (input ligand: none).
